Reference: patent publication US20220160939A1, “SELF-ASSEMBLING PEPTIDES AS BRONCHIAL OBSTRUCTION AGENTS” (3-D MATRIX, LTD., priority 2014, published 2022)

Experiments:
[1] = Gelation kinetics of pH adjusted peptides, time sweep test with DMEM; assay type: physicochemical
Method: The effect of pH level on the properties of gelation kinetics was evaluated to identify optimized pH levels for the peptides as described herein. Fast gelation kinetics of PuraMatrix® and other peptides within body fluid may generally improve its function and response time for various clinical applications. The pH level may impart response time to begin gelation when treated with simulated body fluid including but not limited to DMEM. […] A fast response time of PuraMatrix® (SEQ ID NO:1) and other peptides within body fluid may generally improve its function and response time for various clinical applications.
(§1) Time sweep tests were performed at 1 rad/sec and at 1 Pa with 20 mm plates and 500 μm gap distance. During time sweep test of PuraMatrix® (SEQ ID NO:1) 2.5% solution, DMEM was added into the chamber surrounding the measuring plates to soak PuraMatrix® (SEQ ID NO:1) solution at 0 time point. The results are shown in FIG. 9A for PuraMatrix® (SEQ ID NO:1) 2.5% solution.
as §1, with “IEIK13” for “PuraMatrix®”, “NO:2) 1.5%” for “NO:1) 2.5%”, “NO:2) 1.5%” for “NO:1)”, “point and continuously data was recorded.” for “point.”, “9B” for “9A”

[2] = Rheological properties of ionic strength adjusted hydrogels after DMEM treatment for 10 min; assay type: physicochemical; settings: 1% hydrogels
Method: Based on the results of the effect on the rheological properties of the peptide solutions after adjusting their ionic strength levels, the effect on the rheological properties of the peptide hydrogels after DMEM treatment for 10 min was evaluated. […] The results are shown in FIG. 15 for PuraMatrix® (SEQ ID NO:1) 1% hydrogels and in FIG. 16 for IEIK13 (SEQ ID NO:2) 1% hydrogels, both after DMEM treatment for 10 min. Frequency sweep tests were performed from 1 rad/sec to 10 rad/sec at 1 Pa and the storage modulus at 1 rad/sec was selected for data.
Based on the results of the effect on the rheological properties of the peptide solutions and hydrogels after adjusting their ionic strength levels with NaCl, the effect of various salts (KCl, MgCl2, and CaCl2) was also evaluated. The rheological property of PuraMatrix® (SEQ ID NO:1) solutions increases with ionic strength adjustment at 0.15 M of all the salts. Increases of the rheological property of PuraMatrix® (SEQ ID NO:1) solutions with various salts were not predominantly different. However, increases of the rheological property of PuraMatrix® (SEQ ID NO:1) solutions may vary depending on the salting out constant, K of each salt. Constant K is a constant in Cohen's equation: log S=B−KI, where S is solubility, B is idealized solubility, K is salting out constant, and I is ionic strength. With a higher value of constant K and ionic strength of salts, solubility of the peptide may decrease resulting in strong peptide self-assembly with increased hydrophobic effect and higher rheological properties of the peptide solution. The constant K of NaCl may be higher than the other salts. […] The results are shown in FIG. 17 for PuraMatrix® (SEQ ID NO:1) 1% solution before DMEM treatment, and in FIG. 18 for PuraMatrix® (SEQ ID NO:1) 1% hydrogels after DMEM treatment for 10 min Frequency sweep tests were performed from 1 rad/sec to 10 rad/sec at 1 Pa and the storage modulus at 1 rad/sec was selected for data.

[3] = tested on: Swine lungs; test: Lung volume reduction: injection of peptide hydrogel into bronchi of excised lungs; settings: for filling of lumens of the lungs (histology): hydrogel with 0.00585% Indigo Carmine
Excerpt: Swine lungs were obtained from freshly euthanized pigs. An endotracheal tube, connected to a syringe filled with a peptide hydrogel, was inserted through the trachea and primary bronchus into the lobe of interest. The tube was led through the bronchi to the end of the appropriate lobe and the distance was noted.
The self-assembling peptide hydrogels were comprised of Ac-RADARADARADARADA-NH2 (SEQ ID NO: 1) (i.e., RADA16) or Ac-IEIKIEIKIEIKI-NH2 (SEQ ID NO: 2) (i.e., IEIK13). RADA16 (SEQ ID NO:1) or IEIK13 (SEQ ID NO:2) was mixed with 0.00585% Indigo Carmine to observe spreading of the hydrogels throughout the lobes. When mixed, the peptides were reconstituted with […]. The peptides were reconstituted first in deionized water, and subsequently with 1% Indigo Carmine to provide a final concentration of 0.00585% of the contrast reagent.
Once the lobe of interest was identified, the endotracheal tube was fed to the end where the hydrogels were injected. After each injection of 1 ml of hydrogel the tube was retracted 2 cm and the injection was repeated. This procedure was repeated until a backflow of hydrogel was observed from the bronchi and the total volume of hydrogel injected was noted. The final injection ranged from 0.5-1.5 ml. After backflow of hydrogel was observed, the lobes were cut at 90 degrees to the midline for histological analysis. FIG. 25 illustrates the procedural flow of injecting peptide hydrogel into the bronchi of a single lobe of the lung and observation of penetration of the solution. Lumen penetration of 1% Indigo Carmine solution (left) was compared to 1.5% IEIK13 (SEQ ID NO:2)+0.00585% Indigo Carmine (right).
Tissue samples were fixed in paraformaldehyde and rinsed with ethanol. Histology was conducted at Beth Israel Deaconess Medical Center. […] FIG. 28A presents the IEIK13 (SEQ ID NO:2) gel observed within the major lumens. FIG. 28B presents the IEIK13 ((SEQ ID NO:2) gel observed within the minor lumens. Due to H&E processing, peptide gels break/fragment. Optical imaging has shown that these gels remain as bulk structures.

[4] = with pH adjustment, PuraMatrix 2.5%, IEIK13 1.5% solution

Substance | gelation response to DMEM [1, 4] | ionic strength above which the rheological property of hydrogels after DMEM treatment decreases ([2]; DMEM treatment for 10 min) | ionic strength up to which the rheological property of hydrogels after DMEM treatment increased ([2]; DMEM treatment for 10 min) | lung volume reduction, penetration into lung tissue, versus 1.5% IEIK13 ([3]; 1.0% with 0.00585% Indigo Carmine) | filling of lumens of the lungs (histology) [3] | gelation response to DMEM ([1]; without pH adjustment, 1.5% solution) | rheological property of hydrogels after DMEM treatment ([2]; ionic strength adjustment up to 0.025 M, DMEM 10 min)
Arg-Ala-Asp-Ala-Arg-Ala-Asp-Ala-Arg-Ala-Asp-Ala-Arg-Ala-Asp-Ala [PuraMatrix ®] | immediate storage modulus increase | above 0.7 M | up to 0.7 M | decidedly better | filled both major and minor lumens | – | –
Ile-Glu-Ile-Lys-Ile-Glu-Ile-Lys-Ile-Glu-Ile-Lys-Ile [IEIK13] | immediate storage modulus increase | above 0.03 M | – | – | filled both major and minor lumens | immediate storage modulus increase | did not significantly change
